Data published in article PMC7684300 (Cell Discovery, 2020).

T1: human ORC1 (origin recognition complex subunit 1), full-length (human, UniProt Q13415 1-861)
T1 construct: Origin recognition complex subunit 1, human, full-length codon-optimized synthetic gene; No removal of the tag is described; HsORC1–5 was eluted from Streptactin beads with desthiobiotin; Samples for cryo-EM were mildly cross-linked with glutaraldehyde (GraFix); also called HsORC1; source: Sf21 insect cells, MultiBac baculovirus, co-overexpressed with the other ORC subunits; not shown: twin-strep …
T1 sequence (looked up): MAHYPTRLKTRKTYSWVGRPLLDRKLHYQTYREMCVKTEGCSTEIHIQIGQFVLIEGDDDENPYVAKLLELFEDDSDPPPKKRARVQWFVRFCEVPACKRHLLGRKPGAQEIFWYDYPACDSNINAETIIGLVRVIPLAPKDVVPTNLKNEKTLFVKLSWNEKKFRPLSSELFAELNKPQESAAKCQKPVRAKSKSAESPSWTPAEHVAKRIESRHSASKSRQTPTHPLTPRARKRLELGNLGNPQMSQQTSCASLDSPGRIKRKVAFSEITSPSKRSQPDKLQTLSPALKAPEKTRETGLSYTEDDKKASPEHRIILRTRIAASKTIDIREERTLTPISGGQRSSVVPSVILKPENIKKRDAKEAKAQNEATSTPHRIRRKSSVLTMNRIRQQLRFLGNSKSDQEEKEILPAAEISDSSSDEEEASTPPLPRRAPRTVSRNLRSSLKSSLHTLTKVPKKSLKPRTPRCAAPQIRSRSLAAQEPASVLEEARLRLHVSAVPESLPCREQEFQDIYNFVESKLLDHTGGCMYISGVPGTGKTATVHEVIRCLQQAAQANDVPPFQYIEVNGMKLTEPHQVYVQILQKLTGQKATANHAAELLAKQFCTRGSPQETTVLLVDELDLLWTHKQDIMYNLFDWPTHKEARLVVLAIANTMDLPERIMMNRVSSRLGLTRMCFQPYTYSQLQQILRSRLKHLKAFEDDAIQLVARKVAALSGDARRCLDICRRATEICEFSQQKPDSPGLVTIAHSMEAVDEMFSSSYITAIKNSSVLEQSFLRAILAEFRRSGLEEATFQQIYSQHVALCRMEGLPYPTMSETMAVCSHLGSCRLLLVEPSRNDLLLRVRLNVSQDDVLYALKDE

B1: human ORC5 (origin recognition complex subunit 5), full-length (natural protein, UniProt O43913 1-435, looked up)
chain: MPHLENVVLCRESQVSILQSLFGERHHFSFPSIFIYGHTASGKTYVTQTLLKTLELPHVFVNCVECFTLRLLLEQILNKLNHLSSSEDGCSTEITCETFNDFVRLFKQVTTAENLKDQTVYIVLDKAEYLRDMEANLLPGFLRLQELADRNVTVLFLSEIVWEKFRPNTGCFEPFVLYFPDYSIGNLQKILSHDHPPEYSADFYAAYINILLGVFYTVCRDLKELRHLAVLNFPKYCEPVVKGEASERDTRKLWRNIEPHLKKAMQTVYLREISSSQWEKLQKDDTDPGQLKGLSAHTHVELPYYSKFILIAAYLASYNPARTDKRFFLKHHGKIKKTNFLKKHEKTSNHLLGPKPFPLDRLLAILYSIVDSRVAPTANIFSQITSLVTLQLLTLVGHDDQLDGPKYKCTVSLDFIRAIARTVNFDIIKYLYDFL
notes: Origin recognition complex subunit 5, human, full-length codon-optimized synthetic gene; Samples for cryo-EM were mildly cross-linked with glutaraldehyde (GraFix); also called HsORC5; source: Sf21 insect cells, MultiBac baculovirus, co-overexpressed with the other ORC subunits; not shown: HA, C-terminal, kept
B2: human ORC2 (origin recognition complex subunit 2), full-length (natural protein, UniProt Q13416 1-577, looked up)
chain: MSKPELKEDKMLEVHFVGDDDVLNHILDREGGAKLKKERAQLLVNPKKIIKKPEYDLEEDDQEVLKDQNYVEIMGRDVQESLKNGSATGGGNKVYSFQNRKHSEKMAKLASELAKTPQKSVSFSLKNDPEITINVPQSSKGHSASDKVQPKNNDKSEFLSTAPRSLRKRLIVPRSHSDSESEYSASNSEDDEGVAQEHEEDTNAVIFSQKIQAQNRVVSAPVGKETPSKRMKRDKTSDLVEEYFEAHSSSKVLTSDRTLQKLKRAKLDQQTLRNLLSKVSPSFSAELKQLNQQYEKLFHKWMLQLHLGFNIVLYGLGSKRDLLERFRTTMLQDSIHVVINGFFPGISVKSVLNSITEEVLDHMGTFRSILDQLDWIVNKFKEDSSLELFLLIHNLDSQMLRGEKSQQIIGQLSSLHNIYLIASIDHLNAPLMWDHAKQSLFNWLWYETTTYSPYTEETSYENSLLVKQSGSLPLSSLTHVLRSLTPNARGIFRLLIKYQLDNQDNPSYIGLSFQDFYQQCREAFLVNSDLTLRAQLTEFRDHKLIRTKKGTDGVEYLLIPVDNGTLTDFLEKEEEEA
notes: Origin recognition complex subunit 2, human, full-length codon-optimized synthetic gene; Samples for cryo-EM were mildly cross-linked with glutaraldehyde (GraFix); also called HsORC2; source: Sf21 insect cells, MultiBac baculovirus, co-overexpressed with the other ORC subunits; anti-HA then Streptactin beads for HsORC1–5); not shown: 3x Flag, N-terminal, kept
B3: human ORC4 (origin recognition complex subunit 4), full-length (natural protein, UniProt O43929 1-436, looked up)
chain: MSSRKSKSNSLIHTECLSQVQRILRERFCRQSPHSNLFGVQVQYKHLSELLKRTALHGESNSVLIIGPRGSGKTMLINHALKELMEIEEVSENVLQVHLNGLLQINDKIALKEITRQLNLENVVGDKVFGSFAENLSFLLEALKKGDRTSSCPVIFILDEFDLFAHHKNQTLLYNLFDISQSAQTPIAVIGLTCRLDILELLEKRVKSRFSHRQIHLMNSFGFPQYVKIFKEQLSLPAEFPDKVFAEKWNENVQYLSEDRSVQEVLQKHFNISKNLRSLHMLLMLALNRVTASHPFMTAVDLMEASQLCSMDSKANIVHGLSVLEICLIIAMKHLNDIYEEEPFNFQMVYNEFQKFVQRKAHSVYNFEKPVVMKAFEHLQQLELIKPMERTSGNSQREYQLMKLLLDNTQIMNALQKYPNCPTDVRQWATSSLSWL
notes: Origin recognition complex subunit 4, human, full-length codon-optimized synthetic gene; No tag is named for this subunit; Samples for cryo-EM were mildly cross-linked with glutaraldehyde (GraFix); also called HsORC4; source: Sf21 insect cells, MultiBac baculovirus, co-overexpressed with the other ORC subunits

What was measured:
[1] = target: T1, human ORC1 (origin recognition complex …); test: cryo-EM structure; HsORC1–5 purified by two steps (anti-HA beads, Streptactin beads) after high-salt treatment, mild fixation by GraFix; map at 4.4 Å, State I 5.0 Å, State II 4.8 Å, four subgroups by local classification on ORC1-AAA+; conditions: both partners purified
[2] = target: T1, human ORC1 (origin recognition complex …); test: co-IP; anti-Flag immunoprecipitation (M2-flag affinity beads, eluted with 0.5 mg/mL flag peptide) of N-terminal Flag-tagged ORC2 from soluble lysate of insect cells co-overexpressing ORC1 to ORC6; lysis buffer A: 25 mM HEPES-KOH pH 7.6, 0.2 M KCl, 5 mM ATP, 10% glycerol, 0.05% NP-40; conditions: partners not purified

Row | Binder | binding result [1] | binding result [2]
1 | B1 | binds | 
2 | B2 |  | binds
3 | B3 | binds | 
